From the supplement of paper PMC9170038 come the findings set out here.

The subject of the data set is MS2 coat protein. Briefly: apparent KD of MS2 coat protein; designed switch direction (-1 OFF switch, 1 ON switch): -1; higher = weaker reporter binding. Summed up:
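Apparent KD, taken as the median over clusters for each design, was obtained by curve-fitting normalised cluster fluorescence. Designed RNA switches had been transcribed on Illumina chips by stalled E. coli RNA polymerase and titrated with SNAP-549-labelled MS2 coat protein, doubling from 0.7 or 1.5 nM to 3 µM.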

[1] abbreviates: input ligand: microRNA oligo, concentration not stated.
[2] abbreviates: Eterna round: R95, input ligand: FMN 200 uM.
Where [3] appears, read: Eterna round: R95, input ligand: microRNA oligo, concentration not stated.
The mark [4] stands for this setting: Eterna round: R95, input ligand: none.

Turning to “GCUAGACAUGUCAGGAUAUGCUGUACCUUGGUACAGCAGAAGGGACAUGAGGAUCACCCAUGUGCCUAUCUAGC [JL-BMX4-4.05] (Eterna round: R97, puzzle: Brourd's mod of Exclusion 4)”, the “apparent KD of MS2 coat protein” value is, setting by setting: (input ligand: FMN 200 uM) 308 nM; (input ligand: none) 43.6 nM.
On the same counts, the results for “GCUAGCCAUGUCAGGAUAUGCUGUACCUUGGUACAGCAGAAGGGACAUGAGGAUCACCCAUGUGCCUAGCUAGC [JL-BMX4-4.03] (Eterna round: R97, puzzle: Brourd's mod of Exclusion 4)” are 197 nM and 27.1 nM.
Turning to “GCUAGUCAUGUCAGGAUAUGCAGAACCUUGGUUCUGCAGAAGGGACAUGAGGAUCACCCAUGUGCCUAACUAGC [Mat - Exclusion 4 - JL Mod - D15] (Eterna round: R97, puzzle: Brourd's mod of Exclusion 4)”, the “apparent KD of MS2 coat protein” value was 294 nM (input ligand: FMN 200 uM) and 40.3 nM (input ligand: none).
For “GCUAGUCAUGUCAGGAUAUGCUGUACCUUGGUACAGCAGAAGGGACAUGAGGAUCACCCAUGUGCCUAGCUAGC [JL-BMX4-4.07] (Eterna round: R97, puzzle: Brourd's mod of Exclusion 4)”, the “apparent KD of MS2 coat protein” value (input ligand: FMN 200 uM) came out at 412 nM and the “apparent KD of MS2 coat protein” value (input ligand: none) turned out to be 37.7 nM.
On the same counts, the results for “GCUAUUAGAGGAUAUACAUGAGGAUCACCCAUGUGGUCAAGUCGGUGCCAACUGUUAGGUAGAAGGCUGGAGCC [Eternabot (L1) Solution 76] (Eterna round: R97, puzzle: Exclusion 3)” are 44.8 nM and 49.7 nM.
In the case of “GCUCGUGGGCAAGGAUAUCCUACGCUGUUCUGGUUCGUGUCUGUUACAUGAGGAUCACCCAUGUGGGAGAAGGUGCACCAGGGU [Design 50] (Eterna round: R96, puzzle: Exclusion NG 2)”, the “apparent KD of MS2 coat protein” value (input ligand: FMN 200 uM) worked out at 22.8 nM, the “apparent KD of MS2 coat protein” value under setting [1] amounted to 12.3 nM and the “apparent KD of MS2 coat protein” value (input ligand: none) was 18.3 nM.
For “GCUCGUUUUGUCAGGAUAUUGAGUCAGCUUAAGCUCGAGAAGGGACAUGAGGAUCACCCAUGUACCGCACAAUU [BmEX4 B.29] (Eterna round: R97, puzzle: Brourd's mod of Exclusion 4)”, the “apparent KD of MS2 coat protein” value by setting is: (input ligand: FMN 200 uM) 16.3 nM; (input ligand: none) 11.1 nM.
On the same counts, the results for “GCUGCAAGAGGAUAUACAUGAGGAUCACCCAUGUGGGAUCGCGUUCUGGAUCAGGACUGUAGAAGGUUUGUGCG [Eternabot (L1) Solution 63] (Eterna round: R97, puzzle: Exclusion 3)” are 286 nM and 91.3 nM.
As to “GCUGGACAAGGAUAUGCAAUCGUGCUUCGGCACGUAAGAUCACAUGAGGAUCACCCAUGUAGAAGGUGUCCAGC [E2/3-C2] (Eterna round: R97, puzzle: Exclusion 2)”, the “apparent KD of MS2 coat protein” value runs as follows: (input ligand: FMN 200 uM) 62.5 nM; (input ligand: none) 24 nM.
Take “GCUGGACGAGGAUAUAUAUGACGUGCUUCGGCACGAAGAUCACAUGAGGAUCACCCAUGUAGAAGGUGUCCAGC [E2/8-B2] (Eterna round: R97, puzzle: Exclusion 2)”: the “apparent KD of MS2 coat protein” value reads like this: (input ligand: FMN 200 uM) 278 nM; (input ligand: none) 54.1 nM.
In the case of “GCUGGCUGAGGAUAUCUAUCCAUGAACAUGAGGAUCACCCAUGUAAACGUGGAGUGAGAUAGAGAAGGCGGGCAGA [EX5 A.13] (Eterna round: R97, puzzle: Exclusion 5)”, the “apparent KD of MS2 coat protein” value was found to be 13.6 nM (input ligand: FMN 200 uM) and 11.2 nM (input ligand: none).
Consider “GCUGGUCGAGGAUAUACAUGAGGAUCACCCAUGUAGAUCAACCAGCGAUAGCUGGAAUGUAGAAGGCGACCAGC [E3/5-A1] (Eterna round: R97, puzzle: Exclusion 3)”, for which the “apparent KD of MS2 coat protein” value by setting is: (input ligand: FMN 200 uM) 125 nM; (input ligand: none) 22.9 nM.
On the same counts, the results for “GCUGGUCGAGGAUAUACAUUCGUGCUUCGGCACGUAAGGUCACAUGAGGAUCACCCAUGUAGAAGGCGACCAGC [E2/7-A1] (Eterna round: R97, puzzle: Exclusion 2)” are 258 nM and 42.2 nM.
On the same counts, the results for “GCUGGUCGAGGAUAUGCAAUCGUGCUUCGGCACGUAAGGUCACAUGAGGAUCACCCAUGUAGAAGGCGACCAGC [E2/4-A1] (Eterna round: R97, puzzle: Exclusion 2)” are 32.5 nM and 19.2 nM.
For the sequence “GCUUGAGCAGGAUAUACAUGAGGAUCACCCAUGUGCUUGAGCUUGAUCGAGUUCGAGUGUAGAAGGGUUCGAGU [-26.9, -23.9 kcal, 24% A, 1 bis, 1 bis] (Eterna round: R97, puzzle: Exclusion 3)”, the “apparent KD of MS2 coat protein” value is, setting by setting: (input ligand: FMN 200 uM) 20.8 nM; (input ligand: none) 19.7 nM.
With “GCUUGUAGAGGAUAUACGAGGGCCCGAGCGGAUAACACCGCACAUGAGGAUCACCCAUGUAGAAGGCUACUACC [JL-ex2-4.17 ViennaUCT mod] (Eterna round: R97, puzzle: Exclusion 2)”, the “apparent KD of MS2 coat protein” value reads like this: (input ligand: FMN 200 uM) 495 nM; (input ligand: none) 92.3 nM.
With “GCUUUUCUUUUCCUUUCUUACAUGAGGAUCACCCAUGUUUCUUGUCGUCCUCGCGUUGCUCGUCUGUCUGUCUGUUG [salish99_TOv1_r3_078] (puzzle: Sensor v3, turn-off variant 1)”, the “apparent KD of MS2 coat protein” value was 97.8 nM under setting [2], 135 nM under setting [3] and 95.9 nM under setting [4].
Take “GCUUUUGGGCAAGGAUAUCCUGCGCUGUUCUGGUUCGUGUCUGUCACAUGAGGAUCACCCAUGUGGGAGAAGGUGCCUGUGGUG [Design 70] (Eterna round: R96, puzzle: Exclusion NG 2)”: the “apparent KD of MS2 coat protein” value (input ligand: FMN 200 uM) was determined as 17 nM, the “apparent KD of MS2 coat protein” value under setting [1] was determined as 14.7 nM and the “apparent KD of MS2 coat protein” value (input ligand: none) was found to be 19.2 nM.
As to “GGAAAACAUGAGGAUCACCCAUGUAAGGAUAUGCAAAAGGAUAUAGAAGGAAAAAAAAGCAGAAGGUACAAAGG [salish99-ex1-21] (Eterna round: R96, puzzle: Exclusion 1)”, under setting [1], the “apparent KD of MS2 coat protein” value worked out at 34 nM.
“GGAAAACAUGAGGAUCACCCAUGUAAGGAUAUGCAAAAGGAUAUAGAAGGAAAAAAAAGCAGAAGGUACAAAGG [salish99-ex1_r3_094] (puzzle: Exclusion 1)”: the “apparent KD of MS2 coat protein” value reads like this: under setting [2], 132 nM; under setting [3], 36.3 nM; under setting [4], 32.8 nM.
On the same counts, the results for “GGAAAACAUGAGGAUCACCCAUGUAAGGAUAUGCAAAAGGAUAUAGAAGGAAUAAAAAGCAGAAGGUACAAAGG [salish99-ex1_r3_096] (puzzle: Exclusion 1)” are 116 nM, 45.7 nM and 66.6 nM.
In the case of “GGAAACCGAGGAUAUCAGUACACGCACAUGAGGAUCACCCAUGUGCUCCUGGGUGCUGUCUGAGAAGGCGGUGAGA [Quan] (Eterna round: R97, puzzle: Exclusion 5)”, the “apparent KD of MS2 coat protein” value reads like this: (input ligand: FMN 200 uM) 648 nM; (input ligand: none) 1620 nM.
As for “GGAAAGCAAGGAUAUACAAGUAAACGACGGAAAGUAGAGAGACAUGAGGAUCACCCAUGUAGAAGGUGCGAGAG [JR_Exclu2_Sub035] (puzzle: Exclusion 2)”, the “apparent KD of MS2 coat protein” value reads like this: under setting [2], 19 nM; under setting [3], 26.9 nM; under setting [4], 20.1 nM.
On the same counts, the results for “GGAAAGCAAGGAUAUACGAGGAGAAGGAGGAAAGUAAAAGGACAUGAGGAUCACCCAUGUAGAAGGUGCGAGAG [JR_Exclu2_Sub040] (puzzle: Exclusion 2)” are 27.6 nM, 29.7 nM and 32.9 nM.
Turning to “GGAAGACAUGAGGAUCACCCAUGUAAGGAUAUCGAAGGUAAGAGAGGAAAGAAGGGAACGAGAAGGUACAGGUG [JR_Exclu1_Sub095] (puzzle: Exclusion 1)”, the “apparent KD of MS2 coat protein” value is, setting by setting: under setting [2], 102 nM; under setting [3], 88.9 nM; under setting [4], 123 nM.
Consider “GGAAGCAAGGAAUAACUAAACAUGAGGAUCACCCAUGUAGAGCCCAUGUGCACGCAAAGCGUGCAAGCUCGUCUUAU [AK-miRNA-r3-17] (Eterna round: R97, puzzle: Sensor, turn-off variant 1)”, for which the “apparent KD of MS2 coat protein” value reads like this: (input ligand: FMN 200 uM) 64.4 nM; (input ligand: none) 80.8 nM.
For “GGAAGGAGUGUAAGGAUAUCCUCCUCGAAAGAGGAGGAGAAGGUACAUGAGGAUCACCCAUGUAGAGGAGGAGG [AK-MS2ROC-r4-Bmoexclusion4-10.1] (Eterna round: R97, puzzle: Brourd's mod of Exclusion 4)”, the “apparent KD of MS2 coat protein” value reads like this: (input ligand: FMN 200 uM) 73.6 nM; (input ligand: none) 35.7 nM.
“GGAAGGCGAGGAUAUACAAUAAAGAAAGCGAAAGACAUGAAACAUGAGGAUCACCCAUGUAGAAGGCGCGGAGA [AK-MS2ROC-r4-exclusion2-9] (Eterna round: R97, puzzle: Exclusion 2)”: the “apparent KD of MS2 coat protein” value runs as follows: (input ligand: FMN 200 uM) 16.5 nM; (input ligand: none) 13.8 nM.
On to “GGAAGGCGAGGAUAUGCAAUAAUACACUAAUUAAUGUGAAAACAUGAGGAUCACCCAUGUAGAAGGCGCGAGAA [AK-MS2ROC-r4-exclusion2-5] (Eterna round: R97, puzzle: Exclusion 2)”, for which the “apparent KD of MS2 coat protein” value is 21.2 nM (input ligand: FMN 200 uM) and 20.7 nM (input ligand: none).
On to “GGAAUACAUGAGGAUCACCCAUGUAAGGAUAUGCUGAUUAAAUUGGAUUAAUUAUGCAGCAGAAGGUACAAAAG [Mat - Mod of my Eli Mod D49] (puzzle: Exclusion 1)”, for which the “apparent KD of MS2 coat protein” value under setting [3] stood at 82.3 nM.
Same read-out and setting: next, “GGAAUACAUGAGGAUCACCCAUGUAAGGAUAUGCUGAUUAAUUAAUUAUAAUUAUGCAGCAGAAGGUACAAAGG [Mat - Mod of my Eli Mod D50] (puzzle: Exclusion 1)”: 87 nM.
